In patent US20050130175A1:

Assays:
[1] = target: in vitro translated wild-type wee1 (UniProt P47817); assay: glutathione precipitation from Xenopus interphase egg extract with nuclei and MG132, wee1 Western blot
[2] = target: in vitro translated S38A wee1 (UniProt P47817); assay: as above

| % of input wee1 pulled down [1] | % of input wee1 precipitated [2] | % of input wee1 precipitated [1] | Substance |
| --- | --- | --- | --- |
| 25 % of input | 2.5 % of input | – | GST-Tome-1 (as used in the wee1 binding assay in Xenopus egg extracts) (from UniProt P08515 1-218) |
| – | 8 % of input | 8 % of input | GST-VCA (GST fusion with the C terminus of the actin nucleating scaffolding protein N-WASP) (from UniProt P08515 1-218) |
